Measurements taken from patent publication US20240092888A1 (AULOS BIOSCIENCE, published 2024).
Substitutions are numbered along the chain they refer to.

Columns and labels:
human IL-2 [1] = biological target: T1, human IL-2 (human, UniProt P60568 21-153); assay: yeast surface display flow cytometry, 0.1 nM hIL-2, MFI normalized to expression
T1 construct: SPR used Reprokine human IL-2; the result sentences say only hIL-2 or labeled human IL-2, so the same molecule is used here; also called hIL-2; recombinant human IL-2

human IL-2 [2] = biological target: T1, human IL-2; assay: yeast surface display, selection against human IL-2
[3] = biological target: T2, BDG17.069 complexed with hIL-2 (human, UniProt P60568 21-153); assay: SPR, captured BDG17.069 loaded with hIL-2, CD25 injected before CD122 and again after CD122
T2 construct: Humanized IgG1 LALA captured on the SPR chip and saturated with 50 nM hIL-2
Excerpt: (§1) FIGS. 17A-17B. Present receptor discrimination of indicated antibody/IL-2 complex by tracing of SPR response. Antibody was immobilized to the CM5 chip, and hIL-2, CD122, and CD25 were streamed as indicated with an arrow. FIG. 17A presents a schematic order of injection of compounds to SPR chip, that represents sequential anti-IL-2 antibodies complexed with human IL-2 (hIL2), binding to CD122 but not to CD25.

[4] = biological target: T3, BDG17.038 complexed with hIL-2 (human, UniProt P60568 21-153); assay: SPR, captured BDG17.038 loaded with 50 nM hIL-2, CD25 injected before CD122
T3 construct: Humanized IgG1 captured on the SPR chip and saturated with 50 nM hIL-2; also called BDG17.038/hIL-2
Excerpt: as §1

[5] = biological target: T4, BDG17.054 complexed with hIL-2 (human, UniProt P60568 21-153); assay: SPR, captured BDG17.054 loaded with 50 nM hIL-2, CD25 injected before CD122 and again after CD122
T4 construct: Humanized IgG1 captured on the SPR chip and saturated with 50 nM hIL-2; also called BDG17.054/hIL-2
Excerpt: as §1
(§2) To test specific binding of the humanized antibodies IL-2 complex to CD122 and CD25, antibodies BDG17.038, BDG17.043, BDG17.053, BDG17.054, BDG17.067, BDG17.069 (See, Tables 6 and 7 of Example 2 for sequence information for these clones) were immobilized to an a capture antibody attached to CM5 chip channel to a target RU of approximately 300 RU as described above. Subsequently, 50 nM IL-2 was injected till the respective antibody was saturated with hIL-2. Then the Ab-IL-2 complex was washed with PBS-T buffer for 60 sec and 1000 nM of CD25 was injected and monitored for response. Subsequently, running buffer was injected for 60 seconds to reach a steady baseline, and then 1000 nM of CD122 was injected for 30 seconds in a flow rate of 30 ul/min. To test CD122 binding, the same experiment was repeated in reverse order, with CD122 injected first flowed by injection of CD25.

BDG17.023-hIL-2 complex = biological target: T5, BDG17.023-hIL-2 complex (human, UniProt P60568 21-153); assay: SPR, BDG17.023 on the CM5 chip loaded with 50 nM hIL-2, CD122 then CD25 1000 nM
T5 construct: BDG17.023 (human IgG1 chimera) on the SPR chip saturated with 50 nM hIL-2; also called BDG17.023-IL-2 complex; Ab-IL-2 complex
Protocol: To test specific binding to CD25, BDG17.023 was immobilized to the CM5 chip to a target RU of approximately 300 RU as described above. Subsequently, 50 nM IL-2 was injected till the BDG17.023 or control antibody were saturated. Then the Ab-IL-2 complex was washed with PBS-T buffer for 10 sec and 1000 nM of CD25 was injected and monitored for response.
To test specific binding to CD122, BDG17.023 was immobilized to the CM5 chip to a target RU of approximately 300 RU-500 RU as described above. Subsequently, 50 nM hIL-2 was injected till the BDG17.023 antibody was saturated with hIL-2. Next the Ab-IL-2 complex was washed with PBS-T buffer for 10 sec and 1000 nM of CD122 was injected and response was monitored.

[6] = biological target: T6, BDG17.067 complexed with hIL-2 (human, UniProt P60568 21-153); assay: SPR, captured BDG17.067 loaded with hIL-2, CD25 injected before CD122 and again after CD122
T6 construct: Humanized IgG1 LALA captured on the SPR chip and saturated with 50 nM hIL-2; also called BDG17.0067 complexed with hIL-2
Excerpt: as §1, §2

[7] = biological target: T7, BDG17.043 complexed with hIL-2 (human, UniProt P60568 21-153); assay: SPR, captured BDG17.043 loaded with 50 nM hIL-2, CD25 injected before CD122
T7 construct: Humanized IgG1 captured on the SPR chip and saturated with 50 nM hIL-2; also called BDG17.043/hIL-2
Excerpt: as §1

[8] = biological target: T8, BDG17.066 complexed with hIL-2 (human, UniProt P60568 21-153); assay: SPR, captured BDG17.066 loaded with hIL-2, CD25 injected before CD122 and again after CD122
T8 construct: Humanized IgG1 LALA on the SPR chip saturated with hIL-2
Excerpt: as §1

[9] = biological target: T9, BDG17.053 complexed with hIL-2 (human, UniProt P60568 21-153); assay: SPR, captured antibody saturated with 50 nM hIL-2, then CD25 and CD122 injected in both orders
T9 construct: Humanized IgG1 captured on the SPR chip and saturated with 50 nM hIL-2
Protocol: as §2

T1 sequence (P60568 21-153 limits assumed): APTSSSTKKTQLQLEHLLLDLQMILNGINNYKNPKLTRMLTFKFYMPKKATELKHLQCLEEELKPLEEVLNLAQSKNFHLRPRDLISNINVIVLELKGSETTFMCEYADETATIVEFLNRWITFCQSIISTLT
T9 sequence (VH, as listed by the source limits assumed, chain 1 of 3): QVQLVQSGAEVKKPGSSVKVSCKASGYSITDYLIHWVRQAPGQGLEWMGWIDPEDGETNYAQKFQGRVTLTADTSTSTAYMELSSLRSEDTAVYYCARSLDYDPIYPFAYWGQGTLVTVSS
T9 sequence (VL, as listed by the source limits assumed, chain 2 of 3): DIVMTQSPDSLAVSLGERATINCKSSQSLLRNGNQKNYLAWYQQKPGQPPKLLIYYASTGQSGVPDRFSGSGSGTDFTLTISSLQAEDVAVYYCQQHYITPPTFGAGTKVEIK
T9 sequence (P60568 21-153 limits assumed, chain 3 of 3): as the sequence (P60568 21-153 limits assumed) above
T8 sequence (heavy, as listed by the source limits assumed, chain 1 of 3): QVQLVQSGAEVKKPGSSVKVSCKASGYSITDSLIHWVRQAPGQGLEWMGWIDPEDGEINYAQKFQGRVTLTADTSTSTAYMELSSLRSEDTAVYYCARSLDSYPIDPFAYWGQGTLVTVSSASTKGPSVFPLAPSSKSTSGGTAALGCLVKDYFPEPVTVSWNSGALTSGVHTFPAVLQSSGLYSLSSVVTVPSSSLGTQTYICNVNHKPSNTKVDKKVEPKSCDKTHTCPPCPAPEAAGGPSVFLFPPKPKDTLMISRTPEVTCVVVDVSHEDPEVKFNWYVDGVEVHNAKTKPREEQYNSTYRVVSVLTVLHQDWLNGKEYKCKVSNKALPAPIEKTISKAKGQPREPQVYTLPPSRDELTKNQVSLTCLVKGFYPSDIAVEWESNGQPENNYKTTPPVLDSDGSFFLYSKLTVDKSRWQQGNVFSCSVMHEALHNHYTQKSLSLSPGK
T8 sequence (light, as listed by the source limits assumed, chain 2 of 3): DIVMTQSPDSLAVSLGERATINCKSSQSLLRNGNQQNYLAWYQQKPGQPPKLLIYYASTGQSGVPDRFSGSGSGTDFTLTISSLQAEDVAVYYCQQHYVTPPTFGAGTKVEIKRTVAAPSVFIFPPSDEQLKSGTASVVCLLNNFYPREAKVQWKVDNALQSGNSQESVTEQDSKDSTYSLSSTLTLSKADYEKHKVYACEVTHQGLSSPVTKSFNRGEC
T8 sequence (P60568 21-153 limits assumed, chain 3 of 3): as the sequence (P60568 21-153 limits assumed) above
T4 sequence (VH, as listed by the source limits assumed, chain 1 of 3): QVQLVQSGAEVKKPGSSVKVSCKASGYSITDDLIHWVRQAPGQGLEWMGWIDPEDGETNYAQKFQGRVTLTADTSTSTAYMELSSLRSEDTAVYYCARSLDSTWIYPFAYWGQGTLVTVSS
T4 sequence (VL, as listed by the source limits assumed, chain 2 of 3): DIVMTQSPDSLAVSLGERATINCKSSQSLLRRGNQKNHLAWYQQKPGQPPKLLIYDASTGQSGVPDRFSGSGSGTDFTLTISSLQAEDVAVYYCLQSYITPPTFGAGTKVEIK
T4 sequence (P60568 21-153 limits assumed, chain 3 of 3): as the sequence (P60568 21-153 limits assumed) above
T2 sequence (heavy, as listed by the source limits assumed, chain 1 of 3): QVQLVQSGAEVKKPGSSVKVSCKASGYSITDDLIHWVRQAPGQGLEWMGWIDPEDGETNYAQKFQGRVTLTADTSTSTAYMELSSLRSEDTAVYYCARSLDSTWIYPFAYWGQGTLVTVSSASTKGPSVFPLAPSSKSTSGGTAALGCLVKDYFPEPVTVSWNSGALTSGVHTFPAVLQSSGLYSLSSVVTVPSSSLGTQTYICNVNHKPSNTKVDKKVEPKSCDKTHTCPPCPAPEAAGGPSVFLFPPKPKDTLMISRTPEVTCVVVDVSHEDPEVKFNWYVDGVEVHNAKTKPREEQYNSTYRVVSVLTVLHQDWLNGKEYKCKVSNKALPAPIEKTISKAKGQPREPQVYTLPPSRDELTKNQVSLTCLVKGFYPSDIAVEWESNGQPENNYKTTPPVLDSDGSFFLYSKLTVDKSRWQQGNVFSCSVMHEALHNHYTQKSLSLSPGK
T2 sequence (light, as listed by the source limits assumed, chain 2 of 3): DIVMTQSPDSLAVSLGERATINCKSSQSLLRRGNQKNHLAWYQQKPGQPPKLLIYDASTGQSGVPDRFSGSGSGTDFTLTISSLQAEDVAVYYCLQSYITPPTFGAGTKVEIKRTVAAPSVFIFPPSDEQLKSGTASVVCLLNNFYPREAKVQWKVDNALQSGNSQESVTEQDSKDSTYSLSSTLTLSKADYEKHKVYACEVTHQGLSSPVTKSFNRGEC
T2 sequence (P60568 21-153 limits assumed, chain 3 of 3): as the sequence (P60568 21-153 limits assumed) above
T5 sequence (P60568 21-153 limits assumed, one chain of several): as the sequence (P60568 21-153 limits assumed) above
T7 sequence (VH, as listed by the source limits assumed, chain 1 of 3): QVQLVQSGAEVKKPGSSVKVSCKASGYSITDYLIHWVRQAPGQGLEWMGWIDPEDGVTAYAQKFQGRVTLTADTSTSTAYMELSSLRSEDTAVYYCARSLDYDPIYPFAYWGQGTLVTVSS
T7 sequence (VL, as listed by the source limits assumed, chain 2 of 3): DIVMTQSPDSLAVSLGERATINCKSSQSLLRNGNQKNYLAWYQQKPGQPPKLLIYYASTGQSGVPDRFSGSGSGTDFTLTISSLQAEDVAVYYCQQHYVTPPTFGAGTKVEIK
T7 sequence (P60568 21-153 limits assumed, chain 3 of 3): as the sequence (P60568 21-153 limits assumed) above
T6 sequence (heavy, as listed by the source limits assumed, chain 1 of 3): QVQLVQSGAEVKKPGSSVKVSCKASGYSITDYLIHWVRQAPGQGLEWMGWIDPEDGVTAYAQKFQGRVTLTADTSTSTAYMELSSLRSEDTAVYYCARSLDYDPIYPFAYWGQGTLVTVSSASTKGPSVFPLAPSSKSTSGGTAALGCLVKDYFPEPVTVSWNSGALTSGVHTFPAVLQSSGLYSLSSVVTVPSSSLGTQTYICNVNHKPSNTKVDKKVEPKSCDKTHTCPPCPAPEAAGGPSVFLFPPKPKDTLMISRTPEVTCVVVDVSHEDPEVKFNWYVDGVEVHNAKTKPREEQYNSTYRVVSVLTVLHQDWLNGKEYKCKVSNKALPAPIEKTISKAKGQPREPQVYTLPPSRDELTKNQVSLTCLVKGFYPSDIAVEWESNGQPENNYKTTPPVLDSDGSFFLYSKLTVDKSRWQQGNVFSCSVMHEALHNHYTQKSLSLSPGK
T6 sequence (light, as listed by the source limits assumed, chain 2 of 3): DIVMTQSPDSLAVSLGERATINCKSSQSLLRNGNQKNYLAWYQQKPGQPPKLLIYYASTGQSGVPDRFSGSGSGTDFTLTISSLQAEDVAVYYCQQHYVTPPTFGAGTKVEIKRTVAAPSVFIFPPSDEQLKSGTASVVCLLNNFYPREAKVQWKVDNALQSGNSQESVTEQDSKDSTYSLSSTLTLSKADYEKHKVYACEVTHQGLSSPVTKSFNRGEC
T6 sequence (P60568 21-153 limits assumed, chain 3 of 3): as the sequence (P60568 21-153 limits assumed) above
T3 sequence (VH, as listed by the source limits assumed, chain 1 of 3): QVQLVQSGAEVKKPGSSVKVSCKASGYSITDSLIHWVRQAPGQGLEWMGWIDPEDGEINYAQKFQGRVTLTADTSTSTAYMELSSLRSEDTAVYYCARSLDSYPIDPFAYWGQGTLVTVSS
T3 sequence (VL, as listed by the source limits assumed, chain 2 of 3): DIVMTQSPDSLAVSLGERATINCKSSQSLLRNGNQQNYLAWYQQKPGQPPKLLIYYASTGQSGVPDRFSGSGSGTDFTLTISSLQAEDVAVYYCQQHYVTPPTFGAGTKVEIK
T3 sequence (P60568 21-153 limits assumed, chain 3 of 3): as the sequence (P60568 21-153 limits assumed) above

B1: clone 2 (17.022) scFv, yeast surface display clone (scFv)
scFv: EIQLQQSGPELRRPGSSVKLSCKASGYNITDYLIHWVRHRPEHGLEWIGWIDPEDGETRYAQKFQSKATLTADTSSNAAYMQLSSLTPEDTATYFCARSLDSTWIYPFAYWGQGTLVTVSSGGGGSGGGGSGGGGSDIVMTQSPFSLAVSEGEMVTINCKSSQSLLRSGNQKNYLAWYQQKPGQSPKLLIYYASTGQSGVPDRFIGSGSGTDFTLTISDVQAEDLADYYCLQHYITPPTFGAGTKLELK
binding result (human IL-2 [1]): binds

B2: clone 1 (17.021) scFv, yeast surface display clone (scFv)
scFv: B1 scFv with Y32N, W104Y, I235Q, T236S
binding result (human IL-2 [1]): binds

B3: clone 4 (17.023) scFv, yeast surface display clone (scFv)
scFv: B1 scFv with S99Q, W104Y
binding result (human IL-2 [1]): binds

B4: clone 5 (17.030) scFv, yeast surface display clone (scFv)
scFv: B1 scFv with W104Y, I105D, T236S
binding result (human IL-2 [1]): binds

B5: clone 6 (17.035) scFv, yeast surface display clone (scFv)
scFv: B1 scFv with W104Y, I105N, Y234W, T236S
binding result (human IL-2 [1]): binds

B6: clone C #7 (173R5C1-17.002) (scFv)
scFv: B1 scFv with W104P
notes: Yeast surface display clone from the JES6.1 scFv library
binding result (human IL-2 [2]): binds

B7: human CD25 (receptor, UniProt P01589 22-240, looked up)
chain: ELCDDDPPEIPHATFKAMAYKEGTMLNCECKRGFRRIKSGSLYMLCTGNSSHSSWDNQCQCTSSATRNTTKQVTPQPEEQKERKTTEMQSPMQPVDQASLPGHCREPPPWENEATERIYHFVVGQMVYYQCVQGYRALHRGPAESVCKMTHGKTRWTQPQLICTGEMETSQFPGEEKPQASPEGRPESETSCLVTTTDFQIQTEMAATMETSIFTTEYQ
notes: also called IL-2R alpha
binding result [3]: no binding
binding result [4]: no binding (tested: 1000 nM)
binding result [5]: no binding (tested: 1000 nM)
binding result (BDG17.023-hIL-2 complex): no binding (tested: 1000 nM)
binding result [6]: no binding
binding result [7]: no binding
binding result [8]: no binding
binding result [9]: no binding (tested: 1000 nM CD25)
